From IntAct's records for PubMed 21139563

B1: Importin-13 (Homo sapiens), O94829 (parent)
chain: MERREEQPGAAGAGAAPALDFTVENVEKALHQLYYDPNIENKNLAQKWLMQAQVSPQAWHFSWQLLQPDKVPEIQYFGASALHIKISRYWSDIPTDQYESLKAQLFTQITRFASGSKIVLTRLCVALASLALSMMPDAWPCAVADMVRLFQAEDSPVDGQGRCLALLELLTVLPEEFQTSRLPQYRKGLVRTSLAVECGAVFPLLEQLLQQPSSPSCVRQKVLKCFSSWVQLEVPLQDCEALIQAAFAALQDSELFDSSVEAIVNAISQPDAQRYVNTLLKLIPLVLGLQEQLRQAVQNGDMETSHGICRIAVALGENHSRALLDQVEHWQSFLALVNMIMFCTGIPGHYPVNETTSSLTLTFWYTLQDDILSFEAEKQAVYQQVYRPVYFQLVDVLLHKAQFPSDEEYGFWSSDEKEQFRIYRVDISDTLMYVYEMLGAELLSNLYDKLGRLLTSSEEPYSWQHTEALLYGFQSIAETIDVNYSDVVPGLIGLIPRISISNVQLADTVMFTIGALSEWLADHPVMINSVLPLVLHALGNPELSVSSVSTLKKICRECKYDLPPYAANIVAVSQDVLMKQIHKTSQCMWLMQALGFLLSALQVEEILKNLHSLISPYIQQLEKLAEEIPNPSNKLAIVHILGLLSNLFTTLDISHHEDDHEGPELRKLPVPQGPNPVVVVLQQVFQLIQKVLSKWLNDAQVVEAVCAIFEKSVKTLLDDFAPMVPQLCEMLGRMYSTIPQASALDLTRQLVHIFAHEPAHFPPIEALFLLVTSVTLTLFQQGPRDHPDIVDSFMQLLAQALKRKPDLFLCERLDVKAVFQCAVLALKFPEAPTVKASCGFFTELLPRCGEVESVGKVVQEDGRMLLIAVLEAIGGQASRSLMDCFADILFALNKHCFSLLSMWIKEALQPPGFPSARLSPEQKDTFSQQILRERVNKRRVKEMVKEFTLLCRGLHGTDYTADY

Variants of: B1
Conditions: with mgn_human MAGOH

| Variant | effect of a mutation on the interaction |
| --- | --- |
| R803E | disrupting interaction |
| K802E | disrupting interaction |
